In one assay the target is T1, VEGFR2 (KDR)-IgD 4-7 (human, UniProt P35968 328-753).
T1 construct: domain: IgD4-7; Expressed in E. coli; also called recombinant IgD4-7 of VEGFR2; VEGFR2-ED Ig D4-7
In words: Biacore; antibody as flow analyte, KDR-IgD4-7 as ligand. For orientation: Surface plasmon resonance follows binding to a sensor surface in real time, without labels.

For assay [1], the target named is T2, VEGFR3 IgD5 (individual recombinant immunoglobin-like domain 5 of VEGFR3) (UniProt P35916 422-552, limits assumed).
T2 construct: domain: IgD5
T2 sequence (looked up): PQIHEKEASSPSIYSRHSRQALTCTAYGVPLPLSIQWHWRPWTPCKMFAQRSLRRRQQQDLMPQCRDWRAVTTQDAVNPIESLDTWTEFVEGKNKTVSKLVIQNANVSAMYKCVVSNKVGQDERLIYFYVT
The experiment in a line: cell-based competitive ELISA: R2C7-1 absorbed with the soluble domain, then bound to 293T/VEGFR3 cells, OD405. The procedure:
(§1) Panel A, Cell-based competitive. ELISA. HEK293T cells expressing VEGFR3 (293T/VEGFR3) were coated in 96-well plates. The optimal concentrations of R2C7-1 and R2C9-11 mAbs were determined as described previously (data now shown). The optimal concentrations of R2C7-1 and R2C9-11 mAbs were absorbed with the designed doses of the individual immunoglobin-like domains of VEGFR3 (R3-IgDs) antigens, as indicated. The bound antibodies were immune-probed with secondary antibody conjugated with HRP, visualized by addition of ABTS, and measured at OD₄₀₅ using a microplate reader (SpectraMax). Data are represented as means±S.D. of percentage of isotype control (CTL) in triplicate. The epitope locations of R2C7-1 and R2C9-11 on the VEGFR3 antigen are indicated by the black lines spanning IgD6 in the schematics. Panel B, Native gel electrophoresis. The whole extracellular domain (R3-IgD1-7), domain 3-4 (R3-IgD3-4) and domain 6-7 (R3-IgD6-7) were constructed, expressed in the E. coli, and purified using the anti-Myc affinity purification system. The purity and molecular weight of each recombinant protein were visualized with a standard Western blot using anti-Myc antibody as probe (left). The binding of R2C7-1 and R2C9-11 to the VEGFR3 truncated antigens was evaluated with native gel electrophoresis to confirm the epitopes of R2C7-1 and R2C9-11 mAbs (middle and right, respectively).
(§2) The same methodology was adopted to define the epitopes of the antibodies on VEGFR3. To determine the optimal concentrations of the antibodies for VEGFR3, HEK293T/VEGFR3 transfectants were used as targets (data not shown). Subsequently, the antibodies with optimal concentrations were absorbed with individual recombinant extracellular domains of VEGFR3 (R3-IgDs) for competing the binding epitopes. Similarly, their major epitopes were both located in IgD6, but not in IgD7, of VEGFR3. To conform this finding, Western blotting analysis of different recombinant IgD proteins was carried out using native gel electrophoresis.

Another assay addresses T3, R3-IgD7 (human, UniProt P35916).
T3 construct: recombinant fragment; also called immunoglobin-like domain 7 of VEGFR3
T3 sequence (receptor fragment, looked up): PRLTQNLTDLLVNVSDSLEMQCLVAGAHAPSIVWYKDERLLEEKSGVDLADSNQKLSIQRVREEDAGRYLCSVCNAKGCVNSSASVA
The description is as above. The method, then: as §1, §2

A further assay has as its target T4, R3-IgD4 (human, UniProt P35916).
T4 construct: recombinant fragment; also called immunoglobin-like domain 4 of VEGFR3
T4 sequence (receptor fragment, looked up): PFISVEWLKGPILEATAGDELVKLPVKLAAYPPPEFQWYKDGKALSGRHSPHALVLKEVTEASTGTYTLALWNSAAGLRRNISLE
Described as above. The method, then: as §1, §2

Another assay has as its target T5, VEGFR2 (KDR)-IgD 6-7 (UniProt P35968 551-753).
T5 construct: domain: IgD6-7; GST-tagged recombinant protein from E. coli by the methods; also called recombinant IgD6-7 of VEGFR2; VEGFR2-ED Ig D6-7; not shown: GST tag from the pGEX-4T-1 vector
The experiment in a line: Biacore; antibody as flow analyte, KDR-IgD6-7 as ligand.

In another assay the target is T6, VEGFR3 (Flt-4)-IgD 6-7 (UniProt P35916 555-764, limits assumed).
T6 construct: domain: IgD6-7; also called R3-IgD6-7; VEGFR3-ED Ig D6-7-myc; not shown: myc tag (pCMV6-XL6-myc vector)
T6 sequence (looked up): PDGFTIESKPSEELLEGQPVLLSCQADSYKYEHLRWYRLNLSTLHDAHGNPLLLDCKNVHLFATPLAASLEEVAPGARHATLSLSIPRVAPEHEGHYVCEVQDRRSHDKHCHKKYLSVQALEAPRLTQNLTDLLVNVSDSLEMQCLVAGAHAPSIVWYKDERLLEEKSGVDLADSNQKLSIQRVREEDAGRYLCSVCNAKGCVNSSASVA
In words: Biacore; antibody as flow analyte, Flt 4-IgD6-7 as ligand.

The target of the next assay is T7, VEGFR3 (Flt-4)-IgD 4-7 (UniProt P35916 331-764, limits assumed).
T7 construct: domain: IgD4-7; The methods describe no D4-7 construct of VEGFR3; tag and expression host are unknown; also called recombinant IgD4-7 of VEGFR3
T7 sequence (looked up): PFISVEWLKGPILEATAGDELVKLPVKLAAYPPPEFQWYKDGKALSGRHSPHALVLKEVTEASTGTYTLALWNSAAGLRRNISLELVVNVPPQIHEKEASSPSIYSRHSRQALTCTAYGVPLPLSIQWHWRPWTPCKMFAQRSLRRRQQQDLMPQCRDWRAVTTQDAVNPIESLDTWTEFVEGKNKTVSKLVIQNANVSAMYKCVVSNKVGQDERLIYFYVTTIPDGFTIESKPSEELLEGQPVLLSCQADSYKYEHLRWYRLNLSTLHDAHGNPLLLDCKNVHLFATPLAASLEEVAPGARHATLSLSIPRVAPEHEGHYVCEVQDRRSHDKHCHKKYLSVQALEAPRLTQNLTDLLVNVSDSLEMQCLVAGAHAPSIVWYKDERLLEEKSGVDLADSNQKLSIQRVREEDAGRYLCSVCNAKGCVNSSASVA
The experiment in a line: Biacore; antibody as flow analyte, Flt 4-IgD4-7 as ligand.

T1 sequence (P35968 328-753 limits assumed): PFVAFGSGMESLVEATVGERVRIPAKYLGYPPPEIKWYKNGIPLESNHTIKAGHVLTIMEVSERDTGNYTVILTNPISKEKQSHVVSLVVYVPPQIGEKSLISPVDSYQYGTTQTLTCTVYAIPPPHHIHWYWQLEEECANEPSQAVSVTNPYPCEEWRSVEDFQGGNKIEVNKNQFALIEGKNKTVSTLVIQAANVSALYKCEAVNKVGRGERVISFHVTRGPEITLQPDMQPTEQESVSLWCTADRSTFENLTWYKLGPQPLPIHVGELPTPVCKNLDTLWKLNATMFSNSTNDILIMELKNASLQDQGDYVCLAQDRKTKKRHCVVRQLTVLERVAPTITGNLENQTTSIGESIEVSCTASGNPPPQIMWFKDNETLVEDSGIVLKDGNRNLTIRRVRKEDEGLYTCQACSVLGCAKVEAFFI
T5 sequence (P35968 551-753): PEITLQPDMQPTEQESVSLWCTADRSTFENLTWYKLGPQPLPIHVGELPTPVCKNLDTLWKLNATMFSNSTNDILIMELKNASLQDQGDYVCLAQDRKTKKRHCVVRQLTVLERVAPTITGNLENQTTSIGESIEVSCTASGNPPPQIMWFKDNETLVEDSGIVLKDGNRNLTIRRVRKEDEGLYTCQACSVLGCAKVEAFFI

B1: R2C7-1 monoclonal antibody (antibody, V domains shown)
VH: EVQLQQSGPELVKPGASVKISCKASGYSFTDYFINWVIQRHGKSLEWVGRINPYNGGSFYNQKFKDKATLTVDKSSNIAHMELRSLASEDSAIYYCARSGGNGYDYWGQGTTLTVSS
VL: DIVMTQAAPSVPVIPGESVSISCRSSKSLLHSNGNTYLYWFLQRPGQSPQLLIYRMSNLASGVPDRFSGSGSGTAFTLRISRVEAEDVGVYYCMQHLEYPYTFGGGTKVEIK
notes: Mouse monoclonal antibody purified from hybridoma supernatant; An IgG2a isotype antibody served as its control; also called R2C7-1 mAb
Consider B1, for which the koff (usually the rate constant with which the complex falls apart) with VEGFR2 (KDR)-IgD 4-7 turned out to be 0.0024 s⁻¹; with VEGFR2 (KDR)-IgD 6-7 it was 1.1e-05 s⁻¹; with VEGFR3 (Flt-4)-IgD 6-7, 0.0037 s⁻¹; in the assay with VEGFR3 (Flt-4)-IgD 4-7, 0.0049 s⁻¹. Besides, the binding result (in assay [1]; with R3-IgD7; in the assay with R3-IgD4) was “no binding (tested: 10 (unit not printed on the sheet))” each time. For the same molecule, the figures for the kon in the assay with VEGFR3 (Flt-4)-IgD 6-7 and in the assay with VEGFR3 (Flt-4)-IgD 4-7 were 280000 M⁻¹ s⁻¹ and 1.5e+06 M⁻¹ s⁻¹, respectively.

B2: R2C9-11 monoclonal antibody (antibody, V domains shown)
VH: QVQLQQPGAELVKPGASVKLSCKASGYTFTSYWMHWVKQRPGQGLEWIGEINPSNGRTNYNEKFKSKATLTVDKSSSTAYMQLSSLTSEDSAVYYCANLYFDVWGAGTTVTVSS
VL: DIVMTQSPSSLSVSAGEKVTMSCKSSQNLLNSGNQKYYLAWYQQKPGQPPKLLIYGASIRESGVPDRFIGSGSGTDFTLTISSVQAEDLAVYFCQSDHSYPYTFGGGTKLEIK
notes: Mouse monoclonal antibody purified from hybridoma supernatant; An IgG2a isotype antibody served as its control; also called R2C9-11 mAb
B2: the koff stood at 1.3e-05 s⁻¹ in the assay with VEGFR2 (KDR)-IgD 4-7 and 0.0034 s⁻¹ with VEGFR3 (Flt-4)-IgD 4-7. For the same molecule, the kon (as a rule, the rate constant with which the complex forms) with VEGFR3 (Flt-4)-IgD 4-7 was 3.2e+06 M⁻¹ s⁻¹.
